From patent US20230416396A1 (Regeneron, published 2023)
Where two headings read alike, the source gives them in different places.

What was measured:
[1] = target: T1, human 4-1BB on cells (human, UniProt Q07011 24-255); experiment: cell-based or functional assay
[2] = target: T1, human 4-1BB on cells; experiment: cell-based or functional assay; remark: listed apart in the source
[3] = target: T1, human 4-1BB on cells; experiment: cell-based or functional assay; remark: listed apart in the source
[4] = target: T1, human 4-1BB on cells; experiment: flow cytometry on HEK293/h4-1BB cells, APC anti-human secondary
Experimental: The ability of the multispecific antigen binding molecules to bind cells was assessed using flow cytometry. Cell lines were chosen to determine the ability of both the anti-CD38 and anti-4-1BB arms to bind their targets. […] Binding was detected by using a labeled secondary antibody and measuring fluorescence on a flow cytometer.
HEK293 and HEK293/4-1BB cells were lifted with trypsin, washed and resuspended in stain buffer (2% FBS in PBS) and added to wells of a 96 well V-bottom plate (3×10⁵ cells/well). A 1:5, 9-point, dose titration of test antibodies was diluted in stain buffer and added to cells to a final concentration ranging from 1.3 pM to 100 nM (a “no antibody” control was included as the ninth point ([…]) labeled as “secondary only”). Cells and antibodies were incubated for 30 min on ice and then washed in stain buffer. Cells were resuspended in 2 ug/ml allophycocyanin (APC) conjugated goat-anti human secondary antibody and incubated for 30 min on ice. Cells were then washed and resuspended in viability dye (according to the manufacturer's protocol) and incubated for 30 min on ice. Cells were then washed with stain buffer and resuspended in 2% PFA for 30 min on ice. After washing, cells were filtered and analyzed by flow cytometry to determine the geometric mean fluorescence intensity (gMFI), which was subsequently plotted using GraphPad Prism software. EC₅₀ values of the antibodies were determined from a 4-parameter logistic equation over a 9-point dose response curve (including secondary only control).

[5] = target: T2, human 4-1BB expressed with a C-terminal myc-myc-hexahistidine tag (human, UniProt Q07011 24-186); experiment: SPR Biacore 8k, antibody captured by anti-human Fc, h4-1BB.mmH as analyte, 25 C
T2 construct: also called h4-1BB.mmH; REGN3584; not shown: C-terminal myc-myc-hexahistidine tag
Experimental: (§1) Equilibrium dissociation constants (KD values) for human 4-1BB expressed with a C-terminal myc-myc-hexahistidine tag (h4-1BB.mmH, REGN3584) or human 4-1BB expressed with a C-terminal murine Fc tag (h4-1BB.mFc, REGN3585) binding to purified anti-CD38×4-1BB 1+2 antibodies were determined using a real-time surface plasmon resonance biosensor using a Biacore 8k instrument. The CM5 Biacore sensor surface was derivatized by amine coupling with a monoclonal mouse anti-human Fc antibody (REGN2567). All Biacore binding studies were performed in a buffer composed of 0.01M HEPES pH 7.4, 0.15M NaCl, 3 mM EDTA, 0.05% v/v Surfactant P20 (HBS-EP running buffer). […] Antibody-reagent association was monitored for 5 minutes while dissociation in HBS-EP running buffer was monitored for 10 minutes. At the end of each cycle, the anti-CD38×4-1BB 1+2 antibody capture surface was regenerated using a 10 second injection of 20 mM phosphoric acid. All binding kinetics experiments were performed at 25° C.
(§2) Kinetic association (kₐ) and dissociation (kd) rate constants were determined by fitting the real-time sensorgrams to a 1:1 binding model using Cytiva Insight curve fitting software. Binding dissociation equilibrium constants (KD) and dissociative half-lives (t/2) were calculated from the kinetic rate constants as: […]

[6] = target: T1, human 4-1BB on cells; experiment: cell-based or functional assay; remark: listed apart in the source
[7] = target: T1, human 4-1BB on cells; experiment: cell-based or functional assay; remark: listed apart in the source
[8] = target: T1, human 4-1BB on cells; experiment: cell-based or functional assay; remark: listed apart in the source
[9] = target: T3, human 4-1BB expressed with a C-terminal murine Fc tag (human, UniProt Q07011 24-186); experiment: SPR Biacore 8k, antibody captured by anti-human Fc, h4-1BB.mFc as analyte, 25 C
T3 construct: also called h4-1BB.mFc; REGN3585; not shown: C-terminal murine Fc tag
Experimental: as §1, §2

T1 sequence (Q07011 24-255): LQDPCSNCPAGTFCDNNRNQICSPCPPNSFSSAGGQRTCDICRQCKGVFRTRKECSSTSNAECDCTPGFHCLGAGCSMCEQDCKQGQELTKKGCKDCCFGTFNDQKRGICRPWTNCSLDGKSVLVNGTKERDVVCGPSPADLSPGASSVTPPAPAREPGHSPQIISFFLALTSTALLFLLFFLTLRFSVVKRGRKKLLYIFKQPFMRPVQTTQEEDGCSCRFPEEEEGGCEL
T2 sequence (Q07011 24-186 limits assumed): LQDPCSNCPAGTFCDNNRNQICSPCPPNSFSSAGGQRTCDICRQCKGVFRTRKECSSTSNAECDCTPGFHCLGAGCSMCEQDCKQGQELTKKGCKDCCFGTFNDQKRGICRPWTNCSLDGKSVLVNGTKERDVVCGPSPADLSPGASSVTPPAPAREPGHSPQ
T3 sequence (Q07011 24-186 limits assumed): as above

- EC50 of luciferase activity, HEK293/NFkB-Luc/h4-1BB reporter + OPM2 [1]: 0.00735 nM
- MAX luciferase activity, HEK293/NFkB-Luc/h4-1BB reporter + HEK293/CD20 [1]: 1.2e+06 RLU
- MAX luciferase activity, HEK293/NFkB-Luc/h4-1BB reporter + HEK293/CD20/CD38 [1]: 2.4e+06 RLU
- MAX luciferase activity, HEK293/NFkB-Luc/h4-1BB reporter + MOLP-8 [1]: 2.3e+06 RLU
- MAX luciferase activity, HEK293/NFkB-Luc/h4-1BB reporter + OPM2 [1]: 1.9e+06 RLU
- EC50 of IL-2 release, T cells + NALM6 + Cemiplimab [2]: 0.0477 nM
- EC50 of IL-2 release, T cells + NALM6 + IgG4P [2]: 0.0579 nM
- EC50 of IL-2 release, T cells + NALM6/PD-L1 + Cemiplimab [2]: 0.0911 nM
- EC50 of IL-2 release, T cells + NALM6/PD-L1 + IgG4P [2]: 0.117 nM
- EC50 of IL-2 release, T cells + HEK293/CD20/CD38 + REGN1979 [3]: 0.0058 nM
- EC50 of IL-2 release, T cells + MOLP-8 + IsoC [3]: 0.00221 nM
- EC50 of IL-2 release, T cells + MOLP-8 + REGN5458 [3]: 0.0231 nM
- MAX IL-2 release, T cells + HEK293/CD20 + REGN1979 [3]: 199 pg/mL
- MAX IL-2 release, T cells + HEK293/CD20/CD38 + IsoC [3]: 18 pg/mL
- MAX IL-2 release, T cells + HEK293/CD20/CD38 + REGN1979 [3]: 2850 pg/mL
- MAX IL-2 release, T cells + MOLP-8 + IsoC [3]: 331 pg/mL
- MAX IL-2 release, T cells + MOLP-8 + REGN5458 [3]: 692 pg/mL
- EC50 [4]: 0.608 nM
- MAX gMFI [4]: 1.4e+06 gMFI
- 100 nM h4-1BB.mmH Bind (RU) [5]: 86.1 RU
- Kd [5]: 16.5 nM
- koff [5]: 0.00533 s⁻¹
- kon [5]: 324000 M⁻¹ s⁻¹
- t½ [5]: 2.2 min
- EC50 of IL-2 release, T cells + HEK293/CD20/CD38 + REGN2281 [6]: 0.0535 nM
- EC50 of IL-2 release, T cells + MOLP-8 + REGN5458 [6]: 0.216 nM
- EC50 of IL-2 release, T cells + NALM-6 [6]: 0.0485 nM
- MAX IL-2 release, T cells + HEK293/CD20 + REGN2281 [6]: 61 pg/mL
- MAX IL-2 release, T cells + HEK293/CD20/CD38 + REGN2281 [6]: 781 pg/mL
- MAX IL-2 release, T cells + MOLP-8 + IsoC [6]: 73 pg/mL
- MAX IL-2 release, T cells + MOLP-8 + REGN5458 [6]: 66 pg/mL
- MAX IL-2 release, T cells + NALM-6 [6]: 192 pg/mL
- EC50 of IFNγ release, T cells + HEK293/CD20/CD38 + REGN2281 [7]: 0.0617 nM
- EC50 of IFNγ release, T cells + MOLP-8 + REGN5458 [7]: 0.0707 nM
- EC50 of IFNγ release, T cells + NALM-6 [7]: 0.0703 nM
- MAX IFNγ release, T cells + HEK293/CD20 + REGN2281 [7]: 1910 pg/mL
- MAX IFNγ release, T cells + HEK293/CD20/CD38 + REGN2281 [7]: 6050 pg/mL
- MAX IFNγ release, T cells + MOLP-8 + IsoC [7]: 103 pg/mL
- MAX IFNγ release, T cells + MOLP-8 + REGN5458 [7]: 3280 pg/mL
- MAX IFNγ release, T cells + NALM-6 [7]: 655 pg/mL
- EC50 of IFNγ release, T cells + NALM-6 + IgG4P [8]: 0.0815 nM
- 100 nM h4-1BB.mFc Bind (RU) [9]: 224 RU
- Kd [9]: 1.18 nM
- koff [9]: 0.000231 s⁻¹
- kon [9]: 195000 M⁻¹ s⁻¹
- t½ [9]: 50 min
B1: REGN7647 (bispecific antibody, human IgG4 S228P, kappa)
heavy 1: EVQLVESGGGLVQPGRSLRLSCGASGFTFDDYVMHWVRQIPGKGLEWVAGISWNSGSIGYADSVKGRFTISRDNAKNSLYLQMNSLRAEDTALYFCAKDHIDPYSSSLYYYYGMDVWGQGTTVTVSSASTKGPSVFPLAPCSRSTSESTAALGCLVKDYFPEPVTVSWNSGALTSGVHTFPAVLQSSGLYSLSSVVTVPSSSLGTKTYTCNVDHKPSNTKVDKRVESKYGPPGGGGSGGGGSGGGGSEVQLVESGGGLVQPGRSLRLSCGASGFTFDDYVMHWVRQIPGKGLEWVAGISWNSGSIGYADSVKGRFTISRDNAKNSLYLQMNSLRAEDTALYFCAKDHIDPYSSSLYYYYGMDVWGQGTTVTVSSASTKGPSVFPLAPCSRSTSESTAALGCLVKDYFPEPVTVSWNSGALTSGVHTFPAVLQSSGLYSLSSVVTVPSSSLGTKTYTCNVDHKPSNTKVDKRVESKYGPPCPPCPAPPVAGPSVFLFPPKPKDTLMISRTPEVTCVVVDVSQEDPEVQFNWYVDGVEVHNAKTKPREEQFNSTYRVVSVLTVLHQDWLNGKEYKCKVSNKGLPSSIEKTISKAKGQPREPQVYTLPPSQEEMTKNQVSLTCLVKGFYPSDIAVEWESNGQPENNYKTTPPVLDSDGSFFLYSRLTVDKSRWQEGNVFSCSVMHEALHNRFTQKSLSLSPGK
heavy 2: EVQLVESGGGLVQPGRSLRLSCAASGFTFDDYAMHWVRQAPGKGLEWVSGISWKSDNIGYADSVKGRFTISRDNAKNSLYLQMNSLRAEDTALYYCAKALGGWKFDYYYGMDVWGQGTTVTVSSASTKGPSVFPLAPCSRSTSESTAALGCLVKDYFPEPVTVSWNSGALTSGVHTFPAVLQSSGLYSLSSVVTVPSSSLGTKTYTCNVDHKPSNTKVDKRVESKYGPPCPPCPAPPVAGPSVFLFPPKPKDTLMISRTPEVTCVVVDVSQEDPEVQFNWYVDGVEVHNAKTKPREEQFNSTYRVVSVLTVLHQDWLNGKEYKCKVSNKGLPSSIEKTISKAKGQPREPQVYTLPPSQEEMTKNQVSLTCLVKGFYPSDIAVEWESNGQPENNYKTTPPVLDSDGSFFLYSRLTVDKSRWQEGNVFSCSVMHEALHNHYTQKSLSLSLGK
light: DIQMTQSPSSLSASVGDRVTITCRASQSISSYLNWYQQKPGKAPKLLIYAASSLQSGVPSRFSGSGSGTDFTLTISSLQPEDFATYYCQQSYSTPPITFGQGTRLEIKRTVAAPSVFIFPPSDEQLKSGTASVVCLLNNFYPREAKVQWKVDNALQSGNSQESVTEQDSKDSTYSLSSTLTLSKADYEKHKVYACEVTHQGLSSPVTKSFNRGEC
notes: 1+2 format, hIgG4P-PVA; The linker between the two 4-1BB Fabs is (G4S)3v15; also called CD38x4-1BB (1 + 2), (G4S)3v15; 26812P2 x 35333P2 (IN) + 35333P2 (OUT)
